A short description of series [1]: Hydrolysis kinetics of POZ-lipid conjugates in rat plasma. The format is in vitro ADME. The following applies: 50% rat plasma diluted in PBS, 37° C. As to the method: (§1) These solutions were spiked into the PBS or rat or human plasma media and allowed to incubate at 37° C. Samples were removed from hydrolysis media at different time intervals and quenched by addition of chilled 0.2% formic acid in methanol. […] The POZ-lipid conjugates were detected by UV absorption at 210 nm, and its breakdown and degradation metabolites were detected followed by mass spectrometry.

Series [2] can be described thus: Hydrolysis kinetics of POZ-lipid conjugates in human plasma. It counts as in vitro ADME. The following applies: for Half-Life 50% Human Plasma: 50% human plasma diluted in PBS, 37° C.; for rate of hydrolysis in plasma, ester versus ether linkages: compared with ether linkages (Compounds 17a, 17b and 17c). As for the experimental part: as §1

Data on two substances can be found in patent US12233132B2, “Polyoxazoline-lipid conjugates and lipid nanoparticles and pharmaceutical compositions including same” (Serina Therapeutics, Inc., priority 2021, dated 2025).

In the case of “PEOZ 2K DMG-(triazole-2-propionate) [Compound 19b]”, the “Half-Life 50% Rat Plasma” value in series [1] stood at 1 h. For the same substance, in series [2], the “Half-Life 50% Human Plasma” value is 5 h and the “rate of hydrolysis in plasma, ester versus ether linkages” value is on record as “faster rate”.

As to “PEOZ-(triazole-3-propionyl-DMG) 2K [Compound 19c]”, the “Half-Life 50% Rat Plasma” value in series [1] was under 1 h. In addition, in series [2], the “Half-Life 50% Human Plasma” value turned out to be 7 h and the “rate of hydrolysis in plasma, ester versus ether linkages” value is listed as “faster rate”.
